± gives the half width of the 95% confidence interval.
Experiments:
[1] = folding stability dG unfold (combined trypsin and chymotrypsin); higher = more stable
Method: (§1)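 Folding stability of de novo designed mini-proteins (<80 aa, no Cys; designed by TrROS, TrMRF, ProteinMPNN and the joint model) was measured by cDNA display proteolysis with trypsin and chymotrypsin. Each protease was used at 11 concentrations in a threefold dilution series plus a no-protease condition. K50 was inferred by Bayesian fitting of sequencing counts, and dG unfold was derived against a sequence-predicted unfolded-state K50 (Tsuboyama et al. method). Sequences shown include variable-length N-terminal GS-type padding (SAGGSAGG...) inside a display construct carrying a PA tag. Rows were kept only if the AF2 dimer inter-PAE was >15, to exclude likely homo-oligomers.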

[2] = folding stability dG unfold from chymotrypsin proteolysis; higher = more stable
Method: as §1

SAGGSAGGSAGGMRITIDDWDPDEGPYRVKVTNPDNNKKKTMPYENLEELAKEGPVEIHRSAGGSAGGSAGG [r7_452_TrROS]
folding stability dG unfold [1]: -0.143 ± 0.13 kcal/mol
folding stability dG unfold [2]: 0.368 ± 0.18 kcal/mol

SAGGSAGGSAGGSSVYTSPSKPIAITSRTLVPESNLVRVEAVDPSGAPIEGIIPPSATLGSAGGSAGGSAGG [r7_427_JUSTAS]
folding stability dG unfold [1]: < -1 kcal/mol
folding stability dG unfold [2]: -0.114 ± 0.27 kcal/mol

SAGGSAGGSAGVKRIKDVRNPNGNKIRDVEVEEENDPNGNKYLTIKARHKNGNEQEHTLPSAGGSAGGSAGG [r11_810_TrROS]
folding stability dG unfold [1]: -0.18 ± 0.75 kcal/mol
folding stability dG unfold [2]: 0.568 ± 0.25 kcal/mol

SAGGSAGGSNWIEKAINEAMKQHPPGQERKVPIEIYNPNNNKPIGKIPIRIRMDKDGPMEIEISAGGSAGGS [r20_151_TrROS]
folding stability dG unfold [1]: 0.529 ± 0.074 kcal/mol
folding stability dG unfold [2]: 0.864 ± 0.049 kcal/mol

SAGGSAGGSAGGSPLTLTRTLTLTRTTTDPDVPGTTTTETRTLTLTTELTLPPLPPGTPSAGGSAGGSAGGS [r4_231_TrROS_Hall]
folding stability dG unfold [1]: < -1 kcal/mol
folding stability dG unfold [2]: 0.588 ± 0.18 kcal/mol

SAGGSAGGMTIKELLKEGVPFKIEMYGPNNGEPREFKIPPGESIDDILENMPFPPGMQIRIEPKSAGGSAGG [r6_232_TrROS]
folding stability dG unfold [1]: -0.142 ± 0.42 kcal/mol
folding stability dG unfold [2]: 0.121 ± 0.31 kcal/mol

SAGGDKLGKPLGGKPVTFDISKEELSYNPSNGTWSKSVVTTPRTVFYPPDAEPDPAVFASGAGSVTLASAGG [r13_753_JUSTAS]
folding stability dG unfold [1]: -0.184 ± 0.077 kcal/mol
folding stability dG unfold [2]: 0.281 ± 0.091 kcal/mol

SAGGSAGGSEPRLILTTFPLPEPGEPVLRLLVIGEDRILAVRVVGEKPELRELDRLDDLLAEQSAGGSAGGS [r12_299_TrMRF]
folding stability dG unfold [1]: < -1 kcal/mol
folding stability dG unfold [2]: -0.433 ± 0.46 kcal/mol

SAGGSATFEEALREVAEPTGAVPYVDPETGVAYVDFPDGKELEIEVPDGDRIEVRVLPDGRAVARGSAGGSA [r15_256_TrMRF]
folding stability dG unfold [1]: < -1 kcal/mol
folding stability dG unfold [2]: -0.494 ± 0.19 kcal/mol

SGMTIEVEKEIEIYDPEKGVKIGSVKVKVLVPTSYSPEEIPEIAEKEIKKAKEELEKPEPPEVNEDGTLKSA [r9_454_JUSTAS]
folding stability dG unfold [1]: 0.241 ± 0.16 kcal/mol
folding stability dG unfold [2]: 0.751 ± 0.035 kcal/mol

SAGGSAGGSAKSALDQMKGQKFTFYHPGGEQPVPITIEPDKDDNFVVKFPNKKPYPMPIDDISAGGSAGGSA [r18_169_TrROS]
folding stability dG unfold [1]: < -1 kcal/mol
folding stability dG unfold [2]: -1.29 ± 0.81 kcal/mol

SAGGSAGGSAGGKLTLKLGDYEVEVEWNPDEDVFIAEFPGDPRIARLRIPDDKIEIEPIESAGGSAGGSAGG [r7_156_TrMRF]
folding stability dG unfold [1]: 0.392 ± 0.11 kcal/mol
folding stability dG unfold [2]: 0.819 ± 0.12 kcal/mol

SAGGSAGGSASMSTTEITVTELEEPGEGKRLVIETKSFTPEGKEIDSEKVEEEVREELGVKPSAGGSAGGSA [r18_332_JUSTAS]
folding stability dG unfold [1]: -0.585 ± 0.24 kcal/mol
folding stability dG unfold [2]: -0.0823 ± 0.079 kcal/mol

SAGGSAGGSAGGMPSSVVINLNLSKEEIEAIKKGKPVSPELKPAIEEAKKEGLKVEIKKSAGGSAGGSAGGS [r10_890_JUSTAS]
folding stability dG unfold [1]: 0.309 ± 0.13 kcal/mol
folding stability dG unfold [2]: 0.796 ± 0.037 kcal/mol

SAMDLSTLPPSTSVTPSTSSLPGNLSRSTYTLTTRDPETGALTVTTVTTYTDPSSSSTTVTPSTTLLPASAG [r14_307_JUSTAS]
folding stability dG unfold [1]: 0.00104 ± 0.15 kcal/mol
folding stability dG unfold [2]: 0.34 ± 0.22 kcal/mol

SAGGSAVTAEWILDHMRDMGMPEEDVKIDDVQLEREPDKVVIRIEITMRHPNDGKQRRMDMEIPLPSAGGSA [r15_863_TrROS]
folding stability dG unfold [2]: -0.164 ± 0.34 kcal/mol

SAMKVIVKIKIYDKNGKLVKEIEIPAEILEKDPEKLKELAEKLAEELKKKGYKVEIELVEVVPVEEEEESAG [r14_972_TrROS_Hall]
folding stability dG unfold [2]: 4.5 ± 0.41 kcal/mol

SKKFQIYNPDEGQPFQIEVDPEDGKVTVEWPNGEEEEAPVKDIEIDPGHGWIKIKHPGKEVTIRIPPDMFSA [r9_325_TrROS]
folding stability dG unfold [2]: 0.00862 ± 0.44 kcal/mol

SAGGSAGGSAGGAEELLENGRLRIEWPNGRTHTIDLDDGKIEPPPGFPPDNIRRVEIVPPSAGGSAGGSAGG [r7_566_TrROS]
folding stability dG unfold [2]: 0.444 ± 0.24 kcal/mol

SAGGSAGGSAGGNIVDRLQERFPNFPPKSVDVKMNPNGNRSVDIKFDGPPEMRDALLELSAGGSAGGSAGGS [r10_1089_TrROS]
folding stability dG unfold [2]: 0.128 ± 0.059 kcal/mol

NYRVEIDDMELFPAPPGQEIRIPLKVEDDGQEHELEEIQVNPDDGYITMKVKIEPDGEPKEFTITIPIPPGS [r1_47_TrROS]
folding stability dG unfold [2]: 0.158 ± 0.52 kcal/mol

SAGGMRFRVRLFRPGRWLPPREVEPGAEAALRELPADVPFVVIEFDDPRGRRRVFFRSPEELRRAVAASAGG [r13_299_TrMRF]
folding stability dG unfold [2]: 0.379 ± 0.66 kcal/mol

SAGGSAVKITVEEREIIVPPEEDPLAENNPGIVVKKKTVKYEKEMTPEEKEKFLKEIEEKTGIKIISAGGSA [r15_347_JUSTAS]
folding stability dG unfold [2]: -0.162 ± 0.24 kcal/mol

SAGGNKTREREIPIPPGDSPDQAVDRVLEELEKHPDNNNVNINFRHPNGMPIKIRVTPNGKITEVEPYSAGG [r13_690_TrROS]
folding stability dG unfold [1]: < -1 kcal/mol

SAGGSAGGSAGGQIRDPDGRKWIRVKGASPNKIKDELSELNPNVEIITNPDPNEMWIRIPSAGGSAGGSAGG [r7_370_TrROS]
folding stability dG unfold [1]: < -1 kcal/mol

SAGGSAGGSAGKITIKPEGQDGNGMYYEIRLPDNGKTIQVPFPSPEDADRRAKKILKELFSAGGSAGGSAGG [r11_848_TrROS]
folding stability dG unfold [1]: < -1 kcal/mol

SAGGSAGGIKPGQRVRVKLEQWSPNGEPQKHTFPIKNIPPGFKPGQELTFPGPGHKWRIDEITRSAGGSAGG [r6_561_TrROS]
folding stability dG unfold [1]: < -1 kcal/mol

SAGGSAGGSANVEVHPNPDGHVMVKIEMRMYRYDPDGKPKGPVEIKRSIHVDSPEEAKEFFSAGGSAGGSAG [r3_232_TrROS]
folding stability dG unfold [1]: < -1 kcal/mol

SAGGSAGGSAGMEIKPVKVKAIDPENPKPVAEFEVEVLPDKIIIPKEFAEKVPEDHVEVESAGGSAGGSAGG [r11_725_TrMRF]
folding stability dG unfold [1]: < -1 kcal/mol

SAGPFYVRMKIEVPRKTYDPEDGEPKQEKREIDIWFPMKSEEQARDHADKLAEELPPENVKITDIEPFSAGG [r19_209_TrROS]
folding stability dG unfold [1]: < -1 kcal/mol

SAGGSAGGSAGGVVELPELPPGDDAEVTEVRTPSPGPVELVLRPPHSDETTTRTLSPERLSAGGSAGGSAGG [r7_342_JUSTAS]
folding stability dG unfold [1]: < -1 kcal/mol

SAGGSAGGSAGMKVEPKEDPVVDKSGKPKPITKIYVYVPEPLREEALKEAEENGEEVVLESAGGSAGGSAGG [r17_114_JUSTAS]
folding stability dG unfold [1]: < -1 kcal/mol

SAGGKPPKIKIKVEHEPYPGNGRYYMEVELEDPDDGKPIEIPFRGDSPEEAEENAKEIAREIAKELKSAGGS [r8_480_TrROS]
folding stability dG unfold [1]: < -1 kcal/mol

SAGGSITISMPWNDPEKAAKALEEAFGVDVPPKVERDPGNGWYTITLPNLGRKIQIDGNKVKIEPPSAGGSA [r2_205_TrROS]
folding stability dG unfold [1]: < -1 kcal/mol

SAGGSAGGSAGKNGQPEKVEPQPKIKIRVEDNGKEFETPEQAEELKDELAKKGYKIKVERSAGGSAGGSAGG [r17_289_TrROS]
folding stability dG unfold [1]: < -1 kcal/mol

SAGGSAGGSAGMIVRPVTVTIIDPTNSTPVKTFEALELPDELVIPEEVAKQFSPENVLVRSAGGSAGGSAGG [r11_725_JUSTAS]
folding stability dG unfold [1]: < -1 kcal/mol

SAGGSAGGSAGMEIKYVPEEGLIEVVEKTPKKLPLYSPRYGLEYETKVTTIPPGELDKPLSAGGSAGGSAGG [r11_531_JUSTAS]
folding stability dG unfold [1]: < -1 kcal/mol

SAGEVEKITLTIVVEDPNMTLEEILKKALEALGLKEEDVEVKIVSIKEETLPDGRKLTVIEVEITVPKPSAG [r5_528_TrROS_Hall]
folding stability dG unfold [2]: 3.43 ± 0.26 kcal/mol

SAGGSASSMVSSLPLKVDPKEKARAEAEKLAEEKLEEEPDLEGTVEVELEMETPDKKIKVRLEIKKSAGGSA [r15_729_JUSTAS]
folding stability dG unfold [1]: < -1 kcal/mol

SAGGIMFDSPEEAEELADNGRIKPVNRGKQKHKDNGKEREHEMYMVKIKDPEDNKPVQVMIPADQIRSAGGS [r16_271_TrROS]
folding stability dG unfold [1]: < -1 kcal/mol

SAGGSAGGSAGMPVTESTVTTPTGGLRVTYFPGTNLIELLPVEDGEPRPRLFNSEEALERLSAGGSAGGSAG [r3_426_JUSTAS]
folding stability dG unfold [1]: < -1 kcal/mol

SAGGSAGGSAGGSFVPMSQVTKVTPVGDKLVIETPGNPIVFSPEEIPIPEDLPLNFVPRSAGGSAGGSAGGS [r10_665_JUSTAS]
folding stability dG unfold [1]: < -1 kcal/mol

SAGGSAGGMKVTFDDGVEETLNLTEEEAKAWAESRPDRKMTRIEKEPPEKLSPENLTPEAIKLKSAGGSAGG [r6_881_JUSTAS]
folding stability dG unfold [1]: < -1 kcal/mol

SAGGSAGGSAGGSMTVTVEPVPNSDKLRVTTTTTFLNPSNGQVTSTSTSTTVVPPGVAPSAGGSAGGSAGGS [r10_86_JUSTAS]
folding stability dG unfold [1]: < -1 kcal/mol

SAGGPGVEIVEVDPDGTLRVRAYDPATREPIAEAEIRIGALPVPPPVPGVPVLLADGELREVELPAALSAGG [r13_9_TrMRF]
folding stability dG unfold [1]: < -1 kcal/mol

SAGGSAGGSAGEPIPFRIKVELPGNGREQEIDFPIKTPSEANEIANQLPPGFKRVKIEWYSAGGSAGGSAGG [r11_25_TrROS]
folding stability dG unfold [1]: < -1 kcal/mol

SAGGSAGGSVVPPEEEETVEKKETLTDPVTGKEYLSRRRVTYRPSKPEKVAEEEEIIPPDEPLSAGGSAGGS [r12_868_JUSTAS]
folding stability dG unfold [1]: < -1 kcal/mol

SAGGSAGGSPIMVRVERRDKDGKKKPVPTIPIPINNDDPEEALEWANEIAKKAGARDVRVEIWSAGGSAGGS [r12_569_TrROS]
folding stability dG unfold [1]: < -1 kcal/mol

SAMVVPVELEGPVGDLDELKEKTKKEVEEELGLPDDLENITVTVEKIEPLPDPEGKPVTTRIKLKITVKSAG [r14_736_JUSTAS]
folding stability dG unfold [1]: < -1 kcal/mol

SAGGSAGGSAGGRVKKDVTVRYRLTVRNPVTGKTTERTLTVHVPVLVDEEAELPPLSEVSAGGSAGGSAGGS [r10_1026_TrMRF]
folding stability dG unfold [1]: < -1 kcal/mol

SAGGSAGGSPAFTVPREVKVGDKPVTVEVDGEGRVTIRTPEGGSESEPVGSPGPAPVAFRITLKSAGGSAGG [r6_241_JUSTAS]
folding stability dG unfold [1]: < -1 kcal/mol

SAGGGSKIIEVPVIVEPDEDLGKVAEEIAKKIFPENEKVIVKVEKFENSYRIEIFNPEDGKPIIEGEGSAGG [r13_724_TrMRF]
folding stability dG unfold [1]: < -1 kcal/mol

SAGGMELKVVTLEATSGRREDAGLVPAALEEGARELALAHPELRILGADMEVEPLGEEYVARIPLVVGSAGG [r13_305_TrMRF]
folding stability dG unfold [1]: < -1 kcal/mol

SAGGSAGGSAGGFKIEGNPMPDDDGPYWHIEVTHWRYNGGGPRPRKRTIMIKDPEDAKEFSAGGSAGGSAGG [r7_896_TrROS]
folding stability dG unfold [1]: < -1 kcal/mol
